System: C. albicans v47a3
Assay: Yeast growth in Caco-2/C. albicans co-culture, microscopy
Assay type: cell-based, Candida albicans
Settings: 2 μM Psd1, 4 and 24 h
Experimental: Candida albicans cells in stock were inoculated onto modified YPD (yeast extract 5 g/L, peptone 10 g/L, glucose 10 g/L) agar plates, and incubated for 24 h at 37 °C. After replating, cells were cultured in complete RPMI-1640 (Capricorn Scientific) without antibiotics at 37 °C to optical density 1.0 at 540 nm, centrifuged, and diluted up to the concentration of 5 × 10^4 cells/mL in fresh RPMI-1640 without FBS and antibiotics. In the case of studying combined action on the epithelium of yeast cells and the pea Psd1 recombinant peptide was dissolved in water at the concentration of 200 μM and was added to yeast cell suspension up to the final concentration of 2 μM. Yeast growth and morphology in the presence or absence of peptide under co-cultivation with Caco-2 cells in a 24-well plate were estimated using an inverted microscope, Olympus CKX41 (Olympus, Tokyo, Japan).

Psd1: pea defensin from Pisum sativum (UNIPROT P81929), recombinant peptide overexpressed in Escherichia coli (KTCEHLADTYRGVCFTNASCDDHCKNKAHLISGTCHNWKCFCTQNC; UniProt P81929 1-46, looked up)
growth of C. albicans in Caco-2/C. albicans co-culture: did not inhibit the growth of C. albicans

Reference: publication PMC10178127, “Immunomodulatory Effects of the Pea Defensin Psd1 in the Caco-2/Immune Cells Co-Culture upon Candida albicans Infection” (International Journal of Molecular Sciences, 2023)
